The values that follow come from US20130281317A1 (ALLBERT EINSTEIN COLLEGE OF MEDICINE OF YESHIVA UNIVERSITY, published 2013).

The target of the assay is bovine serum albumin (BSA) (bovine, UniProt P02769 25-607). Description: phage ELISA, coated wells. For orientation: In an ELISA, binding on a coated surface is turned into a signal by an enzyme label.
Sequence of bovine serum albumin (BSA) (P02769 25-607 limits assumed): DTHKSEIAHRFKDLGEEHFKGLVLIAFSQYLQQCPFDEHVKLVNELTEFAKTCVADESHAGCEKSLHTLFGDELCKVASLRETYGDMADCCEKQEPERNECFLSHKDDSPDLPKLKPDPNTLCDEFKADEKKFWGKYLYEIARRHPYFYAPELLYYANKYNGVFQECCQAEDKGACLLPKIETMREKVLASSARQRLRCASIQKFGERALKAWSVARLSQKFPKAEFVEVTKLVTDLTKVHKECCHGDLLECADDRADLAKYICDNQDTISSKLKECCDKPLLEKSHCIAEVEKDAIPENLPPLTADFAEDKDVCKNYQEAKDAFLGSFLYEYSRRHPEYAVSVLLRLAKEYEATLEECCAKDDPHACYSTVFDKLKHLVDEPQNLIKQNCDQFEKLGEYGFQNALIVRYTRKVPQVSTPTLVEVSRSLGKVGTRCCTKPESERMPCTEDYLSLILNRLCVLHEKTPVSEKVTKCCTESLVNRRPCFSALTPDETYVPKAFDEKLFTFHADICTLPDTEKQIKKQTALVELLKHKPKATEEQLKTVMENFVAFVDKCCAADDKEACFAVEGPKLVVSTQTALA

Method: Wells of Costar EIA/RIA high-binding plates were coated with ˜400-600 μg of antigen per well in phosphate-buffered saline (PBS) pH 7.0 at room temperature for 1 hr. The well solutions were decanted, and unbound well sites were blocked with PBS-T/0.5% (w/v) BSA for 1 hr. The wells were washed with PBS-T, phage solutions added and allowed to bind for 30 mins The phage solutions were decanted, the wells washed 5-7 times with PBS-T. Next, a solution containing 1:2500 dilution of anti-M13/HRP conjugate (GE Healthcare, Piscataway, N.J.) was added and allowed to bind for 30 mins. The wells were washed with PBS-T ˜5-7 times and developed using 3,3′,5,5′-tetramethylbezidine (TMB) substrate (Sigma). The ELISA signal was quantified either by direct measurement of blue color absorbance (OD650) or by quenching with sulfuric acid after 10-15 mins and determining the OD at 450 nm.

B1: 2G12 (Fab)2 fragment displayed bivalently on M13 phage from p2G12-Fab2zip (WT) (Fab, V domains shown, not shown: a dimerising Fc or GST; large carriers)
VH: EVQLVESGGGLVKAGGSLILSCGVSNFRISAHTMNWVRRVPGGGLEWVASISTSSTYRDYADAVKGRFTVSRDDLEDFVYLQMHKMRVEDTAIYYCARKGSDRLSDNDPFDAWGPGTVVTVSP
VL: VVMTQSPSTLSASVGDTITITCRASQSIETWLAWYQQKPGKAPKLLIYKASTLKTGVPSRFSGSGSGTEFTLTISGLQFDDFATYHCQHYAGYSATFGQGTRVEIKR
notes: also called 2G12-Fab-biv phage; WT 2G12 clone
Consider B1, for which the binding result is on record as “no binding”.
